Molecular target: HA of BPL-inactivated virus preparation of strain A/New Caledonia/20/99 (H1N1) (influenza A virus A/New Caledonia/20/99 (H1N1))
Assay: ELISA, coated inactivated virus, IgG 5 µg/ml

B1: CR6329 (antibody, V domains shown)
VH: EVQLVQSGAEVKKPGSSVKVSCKASGGIFRSNSISWVRQAPGQGLEWMGGIFALFGTTDYAQKFQGRVTITADESSTTVYLELSSLTSEDTAVYYCARGSGYTTRNYFDYWGQGTLVTVSS
VL: EIVLTQSPGTLSLSPGERATLSCRASQSVSSNYLGWYQQKPGQAPRLLIYGASSRASGIPDRFSGGGSGTDFTLTISRLEPEDFAVYYCQQYGSSPLTFGGGTKVEIKR
- OD 492 nm: 1.04 OD 492 nm

From patent US20090311265A1
